Laboratory results from patent US6974798B2, “Treatment of balance impairments” (Genentech, Inc., priority 1995, dated 2005).
Entries after “also recorded” stand apart in the source; their conditions may differ.

Experiments:
[1] = cited from earlier work
[2] = test system: hair cells; settings: Warchol et al., 1993, Lefebvre et al.; cited from earlier work
[3] = test system: vestibular ganglion neurons (VGNs); experiment: Ototoxin-induced cell death of VGNs in culture; type: cell-based, rat
Experimental: The ability of trkB or trkC agonists to protect neurons from ototoxicity was determined using VGNs in cell culture. […] All human recombinant neurotrophins (Genentech, Inc.) were added to the cultures at the time of plating. […]

[4] = test system: vestibular ganglion neurons (VGNs); experiment: VGN survival in dissociated cell culture, serum-free medium, 2 days; type: cell-based, rat; settings: for survival-promoting effect on VGNs: 10 ng/ml added at plating
Experimental: (§1) The effects of trkB or trkC agonists to enhance neuronal survival was determined using VGNs in cell culture. VGN cell culture was prepared as follows. Vestibular ganglia were dissected from postnatal day 5 (P5) Wistar rats and were incubated in a mixture of 0.125% trypsin and 0.125% collagenase for 25 min at 37° C. The enzyme was inactivated with a mixture of 0.005% soybean trypsin inhibitor (Sigma) and 0.005% DNase (Worthington) before trituration with 0.05% DNase in Eagle's Basal Medium (“BME”). After the undissociated tissues were separated by filtering with a Nylon meshwork (33 μm in pore size), the dissociated cells were preplated on a 35 mm untreated tissue culture dish for 25 min to enrich the neuronal population. Under these experimental procedures, about 3-5% of the cell population were vestibular ganglion neurons (VGNs) as determined by immunocytochemistry with a monoclonal antibody (N52; Boehringer) against neurofilament (200 kd). The cell suspension was finally plated on polylysine (500 μg/ml)laminin (20 μg/ml) coated 16-well LabTek slides in 200 μl of serum-free medium (BME plus serum-free supplement (Sigma I-1884), 1% BSA, 2 mM glutamine, and 5 mg/ml glucose) containing no antibiotics. Cells were plated at a density of 100,000/well.
All human recombinant neurotrophins (obtained from Genentech, Inc.) were added to the cultures at the time of plating.
(§2) Cell counts and data analysis were performed as follows. After 2 days in culture, viable VGNs were identified by labeling with the neurofilament monoclonal antibody N52 and counted using a grid ocular reticule covering an area of 1 mm^2 under a Zeiss Axiophot microscope. For each culture, about 10 randomly selected fields were counted. In these experiments, cell counts were performed in the same way for control cultures. Data were collected from triplet cultures for each of the experimental groups. Data were then normalized as a percentage of the viable VGNs in the control cultures in each of the experiments.
The effect of neurotrophins on cell survival was determined on VGNs which were dissociated from postnatal day 5 (P5) rat vestibular ganglia and plated in defined serum-free medium. Neurofilament protein immunocytochemistry using bright field microscopy was performed in the VGN cultures in serum-free medium in the absence or presence of 10 ng/ml of NT-4/5. In control cultures in serum-free medium without neurotrophins, about 35% of VGNs survived after 2 days. […] The survival-promoting effects of NT-4/5 on cultured VGNs were dose-dependent (FIG. 1).

[5] = target: trkC receptor (Homo sapiens, UniProt Q16288); settings: cited from earlier work; for trkC binding of NT-3 mutants: relative to NT-3
[6] = test system: vestibular ganglion neurons (VGNs); experiment: Blocking of neurotrophin survival-promoting effects by trkB-IgG / trkC-IgG in VGN culture; type: cell-based, rat; settings: for effect on VGN cultures by themselves (without neurotrophin): 1 μg/ml, alone; for effect of trkB-IgG and trkC-IgG together on the effects of NT-4/5 and NT-3: both fusion proteins together
Experimental: as §1, §2
TrkB-IgG and trkC-IgG have been previously reported to be specific antagonists for NT-4/5 (or BDNF) and NT-3, respectively (Shelton et al., 1995). To confirm that the survival-promoting effects of NT-4/5, BDNF and NT-3 were specific, trkB-IgG or trkC-IgG fusion protein was added to the culture along with NT-4/5, BDNF or NT-3. All human recombinant neurotrophins (Genentech, Inc.) were added to the cultures at the time of plating. To block the effects of the neurotrophins, 1 μg/ml of trkB-IgG or trkC-IgG (kindly provided by Dr. Dave Shelton), specific antagonists for NT-4/5 (and BDNF) or NT-3, respectively (Shelton et al., 1995), was added to some of the experimental cultures at the same time when neurotrophins were added.

[7] = target: trkB receptor (Homo sapiens, UniProt Q16620); settings: naturally occurring NGF versus BDNF; cited from earlier work
[8] = test system: vestibular ganglion neurons (VGNs); experiment: Protection of cultured VGNs from cisplatin neurotoxicity; type: cell-based, rat; settings: for protective effect against cisplatin neurotoxicity: 1, 2 or 4 μg/ml cisplatin, 10 ng/ml factor, 2 days
Experimental: as §1, §2
(§3) The ability of trkB or trkC agonists to protect neurons from ototoxicity was determined using VGNs in cell culture. […] All human recombinant neurotrophins (Genentech, Inc.) were added to the cultures at the time of plating. To block the effects of the neurotrophins, 1 μg/ml of trkB-IgG or trkC-IgG (kindly provided by Dr. Dave Shelton), specific antagonists for NT-4/5 (and BDNF) or NT-3, respectively (Shelton et al., 1995), was added to some of the experimental cultures at the same time when neurotrophins were added. […] In other experiments, epidermal growth factor (EGF), basic fibroblast growth factor (βFGF) and insulin-like growth factor-1 (IGF-1) were added to the culture at the time of plating at a concentration of 10 ng/ml. […] In these experiments, cell counts were performed in the same way for control cultures.

[9] = test system: vestibular ganglion neurons (VGNs); experiment: Protection of cultured VGNs against gentamicin neurotoxicity; type: cell-based, rat; settings: FIG. 5; for protective effect against gentamicin neurotoxicity: 1, 2 or 3 mg/ml gentamicin, 10 ng/ml factor, 2 days
Experimental: as §1, §2, §3

[10] = culture containing cisplatin, FIG. 4

Chain of trkC receptor (Q16288 32-839): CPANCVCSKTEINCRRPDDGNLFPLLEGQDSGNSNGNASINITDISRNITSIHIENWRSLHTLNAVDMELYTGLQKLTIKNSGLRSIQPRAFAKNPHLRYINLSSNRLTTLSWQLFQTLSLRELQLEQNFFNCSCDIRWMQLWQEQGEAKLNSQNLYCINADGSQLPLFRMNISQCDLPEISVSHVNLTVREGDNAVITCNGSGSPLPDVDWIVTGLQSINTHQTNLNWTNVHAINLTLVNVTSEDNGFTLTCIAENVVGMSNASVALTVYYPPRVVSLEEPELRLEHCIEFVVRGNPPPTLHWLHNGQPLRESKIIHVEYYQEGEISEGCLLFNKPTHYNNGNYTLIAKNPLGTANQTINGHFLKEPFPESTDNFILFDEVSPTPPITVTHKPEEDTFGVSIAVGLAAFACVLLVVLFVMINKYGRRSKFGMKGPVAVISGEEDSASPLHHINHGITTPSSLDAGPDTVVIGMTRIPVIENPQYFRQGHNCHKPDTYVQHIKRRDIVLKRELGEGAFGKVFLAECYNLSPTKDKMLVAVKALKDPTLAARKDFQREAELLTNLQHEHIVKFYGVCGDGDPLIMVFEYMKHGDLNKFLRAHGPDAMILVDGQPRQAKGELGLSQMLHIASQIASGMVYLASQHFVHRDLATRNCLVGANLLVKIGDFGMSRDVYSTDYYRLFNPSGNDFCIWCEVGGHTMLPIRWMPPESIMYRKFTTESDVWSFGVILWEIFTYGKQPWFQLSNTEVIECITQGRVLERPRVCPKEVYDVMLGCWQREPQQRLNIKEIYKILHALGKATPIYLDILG
Chain of trkB receptor (Q16620 32-822): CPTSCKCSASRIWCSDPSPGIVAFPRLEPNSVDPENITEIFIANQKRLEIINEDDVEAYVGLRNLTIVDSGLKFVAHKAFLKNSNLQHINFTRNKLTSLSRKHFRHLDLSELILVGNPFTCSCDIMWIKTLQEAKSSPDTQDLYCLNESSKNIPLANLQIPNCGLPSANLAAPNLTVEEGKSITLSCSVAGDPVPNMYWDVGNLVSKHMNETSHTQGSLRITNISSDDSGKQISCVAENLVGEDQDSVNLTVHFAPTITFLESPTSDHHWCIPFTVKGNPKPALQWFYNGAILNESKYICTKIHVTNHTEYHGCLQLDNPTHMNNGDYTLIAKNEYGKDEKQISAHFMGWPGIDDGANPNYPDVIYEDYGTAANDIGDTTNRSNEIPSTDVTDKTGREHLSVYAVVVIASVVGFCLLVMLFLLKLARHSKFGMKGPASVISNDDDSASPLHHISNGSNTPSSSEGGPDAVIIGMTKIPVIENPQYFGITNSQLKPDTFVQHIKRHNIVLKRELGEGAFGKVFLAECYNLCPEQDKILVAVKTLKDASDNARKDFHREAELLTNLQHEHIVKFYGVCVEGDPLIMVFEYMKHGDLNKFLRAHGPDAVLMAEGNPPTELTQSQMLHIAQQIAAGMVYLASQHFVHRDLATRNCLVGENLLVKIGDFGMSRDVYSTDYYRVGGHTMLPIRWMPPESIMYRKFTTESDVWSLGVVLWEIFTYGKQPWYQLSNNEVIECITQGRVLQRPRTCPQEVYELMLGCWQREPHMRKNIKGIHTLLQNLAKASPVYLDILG

[H]/N=C(/N)N[C@H]1[C@H](O)[C@@H](O)[C@H](O[C@@H]2O[C@@H](C)[C@](O)(C=O)[C@H]2O[C@@H]2O[C@@H](CO)[C@H](O)[C@@H](O)[C@@H]2NC)[C@@H](N/C(N)=N\[H])[C@@H]1O [streptomycin]
incidence of vestibular impairment ([1]; 1 gram per day): 25% | patients displaying some vestibular impairment ([1]; 2 grams daily for 60 to 120 days): ~75%

gentamicin
concentrations needed to destroy hair cells [2]: 500 to 1000 µg/mL | VGN death ([3]; 3 mgiml of gentamicin): a majority of VGNs died | inhibition of VGN survival by the ototoxin ([3]; added at plating at various concentrations, FIGS. 4 and 5): dose-dependent inhibition of VGN survival | concentrations at which induced VGN cell death was observed ([3]; present experiments): 1000 to 3000 µg/mL

IGF-1: insulin-like growth factor-1
survival-promoting effect on VGNs ([4]; 2 days, FIG. 2): not affected; also recorded: did not produce significant effects

R31A: NT-3 mutant with mutation at position R31 to alanine
trkC binding of NT-3 mutants [5]: increased trkC binding

trkB-IgG: trkB-IgG fusion protein, specific antagonist for NT-4/5 and BDNF (Shelton et al., 1995)
inhibition of the survival-promoting effect of BDNF ([6]; 1 μg/ml antagonist, 10 ng/ml BDNF, FIG. 3): completely abolished; also recorded: inhibit | inhibition of the survival-promoting effect of NT-4/5 ([6]; 1 μg/ml antagonist, 10 ng/ml NT-4/5, FIG. 3): completely abolished; also recorded: inhibit | effect on VGN cultures by themselves (without neurotrophin) [6]: did not show detectable effects | effect of trkB-IgG and trkC-IgG together on the effects of NT-4/5 and NT-3 [6]: blocked

EGF: epidermal growth factor
survival-promoting effect on VGNs ([4]; 2 days, FIG. 2): not affected; also recorded: did not produce significant effects

βFGF: basic fibroblast growth factor
survival-promoting effect on VGNs ([4]; 2 days, FIG. 2): not affected; also recorded: did not produce significant effects

NGF: human recombinant nerve growth factor, ligand of trkA
survival-promoting effect on VGNs ([4]; 2 days, FIG. 2): did not show any detectable effect; also recorded: did not produce significant effects | KD at trkB relative to BDNF (fold lower) [7]: 500-1000 fold | protective effect against cisplatin neurotoxicity ([8]; FIG. 4): no protective effects | KD at trkC relative to NT-3 (fold lower) ([5]; naturally occurring NGF versus NT-3): 500-1000 fold | protective effect against gentamicin neurotoxicity [9]: showed no effect

trkC-IgG: trkC-IgG fusion protein, specific antagonist for NT-3 (Shelton et al., 1995)
inhibition of the survival-promoting effect of NT-3 ([6]; 1 μg/ml antagonist, 10 ng/ml NT-3, FIG. 3): inhibited the activity of NT-3; also recorded: inhibit | effect on VGN cultures by themselves (without neurotrophin) [6]: did not show detectable effects | effect of trkB-IgG and trkC-IgG together on the effects of NT-4/5 and NT-3 [6]: blocked

B1: NT-4/5: human recombinant neurotrophin-4/5 (Genentech, Inc.), ligand of trkB (protein)
chain: GVSETAPASRRGELAVCDAVSGWVTDRRTAVDLRGREVEVLGEVPAAGGSPLRQYFFETRCKADNAEEGGPGAGGGGCRGVDRRHWVSECKAKQSYVRALTAHAQGRVGWRWIRIDTACVCTLLSRTGRA
survival-promoting effect on VGNs ([4]; 2 days, FIG. 2): very significant survival promoting effects | additive/synergistic effect on VGN survival, NT-4/5 combined with BDNF ([4]; 10 ng/ml, FIG. 2): no synergistic effects were observed | additive/synergistic effect on VGN survival, NT-4/5 combined with NT-3 ([4]; 10 ng/ml, FIG. 2): no synergistic effects were observed | survival-promoting effect on VGNs over the dose range ([4]; NT-4/5 at different concentrations, 2 days, FIG. 1): dose-dependent; also recorded: very significant survival-promoting effects | concentration of maximal survival-promoting effect ([4]; doses from 0.1 to 50 ng/ml examined, FIG. 1): 10 ng/mL | number of surviving VGNs relative to cisplatin alone and to control ([8]; 1 μg/ml or 2 μg/ml cisplatin, 10 ng/ml neurotrophin): higher than the control culture without cisplatin | VGN survival ([8]; 4 μg/ml cisplatin, 10 ng/ml neurotrophin, FIG. 4): about 60 % of the survival levels of control cultures in the absence of cisplatin | protective effect against cisplatin neurotoxicity ([8]; FIG. 4): significantly ameliorated the toxic effects of cisplatin; also recorded: very significant protecting effects at all three doses | additive effect, NT-4/5 combined with BDNF, cisplatin culture [8, 10]: no additive effects were observed | additive effect, NT-4/5 combined with NT-3, cisplatin culture [8, 10]: no additive effects were observed | protective effect against gentamicin neurotoxicity [9]: very significant protective effects at all three doses of gentamicin | additive effect, NT-4/5 combined with BDNF, gentamicin culture ([9]; culture containing gentamicin): no additive effects were observed | additive effect, NT-4/5 combined with NT-3, gentamicin culture ([9]; culture containing gentamicin): no additive effects were observed

B2: BDNF: human recombinant brain-derived neurotrophic factor, ligand of trkB (protein)
chain: HSDPARRGELSVCDSISEWVTAADKKTAVDMSGGTVTVLEKVPVSKGQLKQYFYETKCNPMGYTKEGCRGIDKRHWNSQCRTTQSYVRALTMDSKKRIGWRFIRIDTSCVTLTIKRGR
survival-promoting effect on VGNs ([4]; 2 days, FIG. 2): equivalent to NT-4/5; also recorded: very significant survival promoting effects | increase in the number of surviving VGNs ([4]; P5 rat VGNs, 2 days in serum-free medium, versus control culture without neurotrophin): 2 fold | protective effect against cisplatin neurotoxicity ([8]; FIG. 4): equivalent effectiveness; also recorded: very significant protecting effects at all three doses | protective effect against gentamicin neurotoxicity [9]: an effect equivalent to NT-4/5; also recorded: very significant protective effects at all three doses of gentamicin

B3: E92A: NT-3 mutant with mutation at position E92 to alanine (protein, UniProt P20783 139-257, looked up, variant E92A)
Neurotrophin-3: YAEHKSHRGEYSVCDSESLWVTDKSSAIDIRGHQVTVLGEIKTGNSPVKQYFYETRCKEARPVKNGCRGIDDKHWNSQCKTSQTYVRALTSANNKLVGWRWIRIDTSCVCALSRKIGRT
trkC binding of NT-3 mutants [5]: increased trkC binding

B4: NT-3: human recombinant neurotrophin-3, ligand of trkC (protein)
chain: YAEHKSHRGEYSVCDSESLWVTDKSSAIDIRGHQVTVLGEIKTGNSPVKQYFYETRCKEARPVKNGCRGIDDKHWNSQCKTSQTYVRALTSENNKLVGWRWIRIDTSCVSALSRKIGRT
survival-promoting effect on VGNs ([4]; 2 days, FIG. 2): significant effect (p<0.01) but was less potent than NT-4/5 and BDNF; also recorded: very significant survival promoting effects | protective effect against cisplatin neurotoxicity ([8]; FIG. 4): Significant protective, but less potent effects; also recorded: very significant protecting effects at all three doses | protective effect against gentamicin neurotoxicity [9]: significantly protective effect; also recorded: very significant protective effects at all three doses of gentamicin
